# From IntAct's records for PubMed 12445118
# B1: Coronatine-insensitive protein 1 (Arabidopsis thaliana (Mouse-ear cress)), O04197 (parent)
# chain: MEDPDIKRCKLSCVATVDDVIEQVMTYITDPKDRDSASLVCRRWFKIDSETREHVTMALCYTATPDRLSRRFPNLRSLKLKGKPRAAMFNLIPENWGGYVTPWVTEISNNLRQLKSVHFRRMIVSDLDLDRLAKARADDLETLKLDKCSGFTTDGLLSIVTHCRKIKTLLMEESSFSEKDGKWLHELAQHNTSLEVLNFYMTEFAKISPKDLETIARNCRSLVSVKVGDFEILELVGFFKAAANLEEFCGGSLNEDIGMPEKYMNLVFPRKLCRLGLSYMGPNEMPILFPFAAQIRKLDLLYALLETEDHCTLIQKCPNLEVLETRNVIGDRGLEVLAQYCKQLKRLRIERGADEQGMEDEEGLVSQRGLIALAQGCQELEYMAVYVSDITNESLESIGTYLKNLCDFRLVLLDREERITDLPLDNGVRSLLIGCKKLRRFAFYLRQGGLTDLGLSYIGQYSPNVRWMLLGYVGESDEGLMEFSRGCPNLQKLEMRGCCFSERAIAAAVTKLPSLRYLWVQGYRASMTGQDLMQMARPYWNIELIPSRRVPEVNQQGEIREMEHPAHILAYYSLAGQRTDCPTTVRVLKEPI
# B2: Coronatine-insensitive protein 1 (Arabidopsis thaliana (Mouse-ear cress)), O04197 (parent)
# chain: B1 chain
# partner: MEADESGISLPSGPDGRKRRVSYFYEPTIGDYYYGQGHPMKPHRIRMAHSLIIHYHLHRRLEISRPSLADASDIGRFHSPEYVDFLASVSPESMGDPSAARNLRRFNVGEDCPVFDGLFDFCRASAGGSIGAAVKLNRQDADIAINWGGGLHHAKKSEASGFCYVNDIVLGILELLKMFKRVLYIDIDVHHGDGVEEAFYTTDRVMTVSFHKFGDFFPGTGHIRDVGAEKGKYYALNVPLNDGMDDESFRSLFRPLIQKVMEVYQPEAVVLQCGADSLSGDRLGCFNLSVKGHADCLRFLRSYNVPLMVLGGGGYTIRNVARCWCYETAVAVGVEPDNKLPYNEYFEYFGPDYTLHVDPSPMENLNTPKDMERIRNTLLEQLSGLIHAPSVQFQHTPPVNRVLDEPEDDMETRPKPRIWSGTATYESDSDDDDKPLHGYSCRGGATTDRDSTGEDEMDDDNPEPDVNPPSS
# Variants of: B1
# Conditions: with skp1a_arath SKP1A
row,effect of a mutation on the interaction,Variant
1,decreasing interaction,W44A

# Variants of: B1
# Conditions: with skp1b_arath SKP1B
row,effect of a mutation on the interaction,Variant
1,decreasing interaction,W44A

# Variants of: B1
# Conditions: with rbs3b_arath RBCS-3B
row,effect of a mutation on the interaction,Variant
1,decreasing interaction,W44A
2,decreasing interaction,L245F

# Variants of: B2
# Conditions: with hda6_arath HDA6, Q9FML2
row,effect of a mutation on the interaction,Variant
1,decreasing interaction,W44A
2,decreasing interaction,L245F
